Reference: article PMC4787775, “Molecular basis for the substrate specificity and catalytic mechanism of thymine-7-hydroxylase in fungi” (Nucleic Acids Research, 2015)

Legend:
[1] = target: T1, NcT7H (thymine-7-hydroxylase) (Neurospora crassa, UniProt Q7RYZ9); experiment: isothermal titration calorimetry; assay type: binding
T1 construct: gene NCU06416; full length (residues 1-333), C-terminal His6-tag, pET-28a, expressed in E. coli BL21(DE3); Ni-NTA and gel filtration, tag removal not mentioned
Excerpt: isothermal titration calorimetry on NcT7H (thymine-7-hydroxylase)

[2] = substrate: O=c1[nH]cc(CO)c(=O)[nH]1; experiment: purified protein; settings: 1 mM α-KG, 0.2 mM (NH4)2Fe(SO4)2, 0.2 mM ascorbic acid, 100 mM Hepes pH 7.5, 25 °C
[3] = substrate: Cc1c[nH]c(=O)[nH]c1=O; experiment: purified protein; assay type: biochemical, Neurospora crassa; settings: 1 mM α-KG, 0.2 mM (NH4)2Fe(SO4)2, 0.2 mM ascorbic acid, 100 mM Hepes pH 7.5, 25 °C
[4] = substrate: O=Cc1c[nH]c(=O)[nH]c1=O; experiment: purified protein; assay type: biochemical, Neurospora crassa; settings: 1 mM α-KG, 0.2 mM (NH4)2Fe(SO4)2, 0.2 mM ascorbic acid, 100 mM Hepes pH 7.5, 25 °C

In the case of `O=C(O)CCC(=O)C(=O)O` [α-KG], the Kd [1] is reported as 34.4 ± 6.63 µM.

Work on `O=c1[nH]cc(CO)c(=O)[nH]1` [5hmU] yielded a Kd [1] of 30.5 ± 5.59 µM.

Work on `O=C(O)CNC(=O)C(=O)O` [NOG] yielded a Kd [1] of 5.35 ± 1.26 µM.

`Cc1c[nH]c(=O)[nH]c1=O` [T] was tested, and the Kd [1] was 32 ± 5.24 µM.

`O=Cc1c[nH]c(=O)[nH]c1=O` [5fU] gave a Kd [1] of 108 ± 13 µM.

B1: NcT7H (thymine-7-hydroxylase) (Neurospora crassa OR74A; R286A) (protein)
chain: MEKAAVNEDGLVIPLIDFSKFLEGDETLKLETAKAILHGFQTAGFIYLKNIPIQPDFREHVFNTSAKFFKLPKEKKLEVGWTTPEANRGYSAPGREKVTQLTDPAEIEKIRSAAPDIKESYEIGREDEPGHPNPWPAEQDDLVGFKSTMNNFFDQCKALHIEVMRAIAVGMGIDANYFDSFVDVGDNILRLLHYPAVKSEVFKINPGQVRAGEHTDYGSITLLFQDSRGGLQVKSPNGQFIDATPIENTVVVNAGDLLARWSNDTIKSTVHRVVEPPKQEDVHPPAYSIAYFCNPNHKSYIEAIPGTYAAESERKYEGINSGKYLVQRLAATY
notes: full length (residues 1-333), C-terminal His6-tag, pET-28a, expressed in E. coli BL21(DE3); Ni-NTA and gel filtration, tag removal not mentioned
Work on B1 yielded a Km [2] of 950 ± 114 µM, a kcat [2] of 0.141 s⁻¹ and a kcat/Km [2] of 150 M⁻¹ s⁻¹. For the same molecule, the Km [3] was 649 ± 74.1 µM, the kcat [3] was 0.405 ± 0.0215 s⁻¹ and the kcat/Km [3] was 617 M⁻¹ s⁻¹.

B2: NcT7H (thymine-7-hydroxylase) (Neurospora crassa OR74A) (protein)
chain: MEKAAVNEDGLVIPLIDFSKFLEGDETLKLETAKAILHGFQTAGFIYLKNIPIQPDFREHVFNTSAKFFKLPKEKKLEVGWTTPEANRGYSAPGREKVTQLTDPAEIEKIRSAAPDIKESYEIGREDEPGHPNPWPAEQDDLVGFKSTMNNFFDQCKALHIEVMRAIAVGMGIDANYFDSFVDVGDNILRLLHYPAVKSEVFKINPGQVRAGEHTDYGSITLLFQDSRGGLQVKSPNGQFIDATPIENTVVVNAGDLLARWSNDTIKSTVHRVVEPPKQEDVHPPRYSIAYFCNPNHKSYIEAIPGTYAAESERKYEGINSGKYLVQRLAATY
notes: as for B1
B2 was tested, and the Km [2] was 178 ± 16.4 µM, the kcat [2] was 0.325 s⁻¹ and the kcat/Km [2] was 1830 M⁻¹ s⁻¹. The Km [3] was 141 ± 13.4 µM, the kcat [3] was 0.417 ± 0.0123 s⁻¹ and the kcat/Km [3] was 2950 M⁻¹ s⁻¹. The Km [4] was 253 ± 32.2 µM, the kcat [4] was 0.765 ± 0.0357 s⁻¹ and the kcat/Km [4] was 3020 M⁻¹ s⁻¹.

B3: NcT7H (thymine-7-hydroxylase) (Neurospora crassa OR74A; Y217F) (protein)
chain: MEKAAVNEDGLVIPLIDFSKFLEGDETLKLETAKAILHGFQTAGFIYLKNIPIQPDFREHVFNTSAKFFKLPKEKKLEVGWTTPEANRGYSAPGREKVTQLTDPAEIEKIRSAAPDIKESYEIGREDEPGHPNPWPAEQDDLVGFKSTMNNFFDQCKALHIEVMRAIAVGMGIDANYFDSFVDVGDNILRLLHYPAVKSEVFKINPGQVRAGEHTDFGSITLLFQDSRGGLQVKSPNGQFIDATPIENTVVVNAGDLLARWSNDTIKSTVHRVVEPPKQEDVHPPRYSIAYFCNPNHKSYIEAIPGTYAAESERKYEGINSGKYLVQRLAATY
notes: as for B1
For B3, the Km [2] was 247 ± 35.2 µM, the kcat [2] was 0.553 s⁻¹ and the kcat/Km [2] was 2230 M⁻¹ s⁻¹. For the same molecule, the Km [3] was 128 ± 18.5 µM, the kcat [3] was 0.542 ± 0.0228 s⁻¹ and the kcat/Km [3] was 4230 M⁻¹ s⁻¹. It also gave a Km [4] of 718 ± 213 µM, a kcat [4] of 0.237 ± 0.0352 s⁻¹ and a kcat/Km [4] of 333 M⁻¹ s⁻¹.

B4: NcT7H (thymine-7-hydroxylase) (Neurospora crassa OR74A; N87A) (protein)
chain: MEKAAVNEDGLVIPLIDFSKFLEGDETLKLETAKAILHGFQTAGFIYLKNIPIQPDFREHVFNTSAKFFKLPKEKKLEVGWTTPEAARGYSAPGREKVTQLTDPAEIEKIRSAAPDIKESYEIGREDEPGHPNPWPAEQDDLVGFKSTMNNFFDQCKALHIEVMRAIAVGMGIDANYFDSFVDVGDNILRLLHYPAVKSEVFKINPGQVRAGEHTDYGSITLLFQDSRGGLQVKSPNGQFIDATPIENTVVVNAGDLLARWSNDTIKSTVHRVVEPPKQEDVHPPRYSIAYFCNPNHKSYIEAIPGTYAAESERKYEGINSGKYLVQRLAATY
notes: as for B1
B4 showed a Km [2] of 1065 ± 156 µM, a kcat [2] of 0.0962 s⁻¹ and a kcat/Km [2] of 83.3 M⁻¹ s⁻¹. It also gave a Km [3] of 638 ± 128 µM, a kcat [3] of 0.23 ± 0.022 s⁻¹ and a kcat/Km [3] of 367 M⁻¹ s⁻¹.

B5: NcT7H (thymine-7-hydroxylase) (Neurospora crassa OR74A; Y217A) (protein)
chain: MEKAAVNEDGLVIPLIDFSKFLEGDETLKLETAKAILHGFQTAGFIYLKNIPIQPDFREHVFNTSAKFFKLPKEKKLEVGWTTPEANRGYSAPGREKVTQLTDPAEIEKIRSAAPDIKESYEIGREDEPGHPNPWPAEQDDLVGFKSTMNNFFDQCKALHIEVMRAIAVGMGIDANYFDSFVDVGDNILRLLHYPAVKSEVFKINPGQVRAGEHTDAGSITLLFQDSRGGLQVKSPNGQFIDATPIENTVVVNAGDLLARWSNDTIKSTVHRVVEPPKQEDVHPPRYSIAYFCNPNHKSYIEAIPGTYAAESERKYEGINSGKYLVQRLAATY
notes: as for B1
B5 gave a Km [3] of 1500 ± 332 µM, a kcat [3] of 0.257 ± 0.0355 s⁻¹ and a kcat/Km [3] of 167 M⁻¹ s⁻¹.

B6: NcT7H (thymine-7-hydroxylase) (Neurospora crassa OR74A; R190K) (protein)
chain: MEKAAVNEDGLVIPLIDFSKFLEGDETLKLETAKAILHGFQTAGFIYLKNIPIQPDFREHVFNTSAKFFKLPKEKKLEVGWTTPEANRGYSAPGREKVTQLTDPAEIEKIRSAAPDIKESYEIGREDEPGHPNPWPAEQDDLVGFKSTMNNFFDQCKALHIEVMRAIAVGMGIDANYFDSFVDVGDNILKLLHYPAVKSEVFKINPGQVRAGEHTDYGSITLLFQDSRGGLQVKSPNGQFIDATPIENTVVVNAGDLLARWSNDTIKSTVHRVVEPPKQEDVHPPRYSIAYFCNPNHKSYIEAIPGTYAAESERKYEGINSGKYLVQRLAATY
notes: as for B1
With B6 the Km [2] was 1016 ± 200 µM, the kcat [2] was 0.0353 s⁻¹ and the kcat/Km [2] was 33.3 M⁻¹ s⁻¹. The Km [3] was 542 ± 64.7 µM, the kcat [3] was 0.055 ± 0.003 s⁻¹ and the kcat/Km [3] was 100 M⁻¹ s⁻¹.
